{"source": "paper PMC6085346", "about": "“A nuclear-encoded protein, mTERF6, mediates transcription termination of rpoA polycistron for plastid-encoded RNA polymerase-dependent chloroplast gene expression and chloroplast development”", "binders": {"B1": {"name": "probe B (22 nt, single strand) (ssDNA)", "DNA": "AATTTCTATTTTCCAGTCGAAC"}, "B2": {"name": "probe A (rpoA 3'-end, 122 bp) (dsDNA)", "DNA 1": "AATTTCTATTTTCCAGTCGAACCCATTTTAATTAATTAATTAAATTAATTAGAATTAGATATGTATCTAGGGAGAATTCATTTGGAAATGACTACTCCCTAGATACCTCCCTAGATACCCAC", "DNA 2": "GTGGGTATCTAGGGAGGTATCTAGGGAGTAGTCATTTCCAAATGAATTCTCCCTAGATACATATCTAATTCTAATTAATTTAATTAATTAATTAAAATGGGTTCGACTGGAAAATAGAAATT"}}, "key": {"[1]": {"target": "T1, MBP-mTERF6.1 (without transit peptide) (Arabidopsis thaliana, UniProt Q9SZL6 25-333)", "T1 sequence": "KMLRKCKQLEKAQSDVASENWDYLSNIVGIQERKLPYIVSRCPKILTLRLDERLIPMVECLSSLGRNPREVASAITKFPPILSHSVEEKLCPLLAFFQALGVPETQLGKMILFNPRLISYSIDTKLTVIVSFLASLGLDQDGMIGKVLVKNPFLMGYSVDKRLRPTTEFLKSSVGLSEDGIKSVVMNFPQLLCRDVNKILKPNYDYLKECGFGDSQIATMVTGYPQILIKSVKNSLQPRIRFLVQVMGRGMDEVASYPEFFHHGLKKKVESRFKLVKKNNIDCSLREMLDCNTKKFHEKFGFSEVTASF", "test": "EMSA; 5 mM MgCl2; stronger shift than probe A; weakened by 1-, 2-, 8-fold competitor; EMSA 20 uL: LightShift binding buffer, 5 mM MgCl2, 1 mM EDTA, 2.5% glycerol, 0.05% NP-40, 50 ng/uL poly(dI-dC), 20 fmol probe (printed 'fmal'), 0.5 ug protein", "conditions": "protein: recombinant; tags: N-terminal MBP (pMAL-c5X); label: 5' biotin"}, "[2]": {"target": "T1, MBP-mTERF6.1 (without transit peptide)", "test": "EMSA; 5 mM MgCl2; shift greatly reduced by 200-fold unlabeled probe A; EMSA 20 uL: LightShift binding buffer, 5 mM MgCl2, 1 mM EDTA, 2.5% glycerol, 0.05% NP-40, 50 ng/uL poly(dI-dC), 20 fmol probe (printed 'fmal'), 0.5 ug protein", "conditions": "protein: recombinant; tags: N-terminal MBP (pMAL-c5X); label: 5' biotin"}}}
{"binder": "B1", "values": [{"measurement": "binding result", "setting": "[1]", "result": "binds"}]}
{"binder": "B2", "values": [{"measurement": "binding result", "setting": "[2]", "result": "binds"}]}
